Results reported in patent US20220389113A1, “BINDING PROTEINS TO CUB DOMAIN-CONTAINING PROTEIN (CDCP1)” (COMMONWEALTH SCIENTIFIC AND INDUSTRIAL RESEARCH ORGANISATION, priority 2019, published 2022).

Key:
TKCC05 cells = experiment: Survival assay with cytotoxin-conjugated antibodies, TKCC05; format: cell-based, human; conditions: TKCC05, 1 μg/ml, 12 h treatment then 72 h growth
Method: The relative number of viable cells was then measured by adding the CellTiter AQueous One Solution Reagent to each well and measuring absorbance at 490 nm as described above. […] Cells were imaged by wide-field fluorescence microscopy and the total area of confluence for each cell type was quantified by image analysis using Image J software.

OVMZ6-CDCP1 cells = experiment: Colony formation assay, OVMZ6-CDCP1 cells; format: cell-based, human
Method: MMAE-conjugated 10D7 and IgG1K were prepared as described (Nielsen C F, et al., (2017) Oncotarget. 8(27):44605-24.53) and drug-antibody ratio (DAR) determined by reverse phase LC/MS as reported (Basa L. et al., (2013) Methods Mol Biol. 1045:285-93.) on an ABSCIEX Triple TOF spectrometer (AB SCIEX Framingham, Mass.) coupled to a Shimadzu Nexera 1D UHPLC system (Shimadzu, Rydalmere, Australia). ADC peak identification was performed as reported with DAR determined by peak area integration (Hamblett K J, et al., (2004) Clin Cancer Res. 10(20):7063-70; Yao X, et al., (2015) Breast Cancer Res Treat. 153(1):123-33). Colony-formation assays were performed as described (Crowley L C, et al., (2016) Cold Spring Harb Protoc. 2016(8):pdb.prot087171) on cells (100,000/ml) treated with the indicated concentrations of 10D7, 10D7-MMAE, IgG or IgG-MMAE overnight before being lifted and replated in 24-well plates (200 cells/well). After a defined growth period media was removed and cells gently PBS washed before staining with 0.1% crystal violet (Sigma-Aldrich) in 2% ethanol. After 20 minutes and stained cells were scanned (700 nm) on a LiCOR System (Odyssey V3.0 software) with images analyzed using the ColonyArea ImageJ plugin to quantify colony area and intensity (Guzmán C, et al., (2014) PLoS One. 9(3):e92444.). […]

TKCC2.1 cells xenografts = experiment: Pancreatic cancer subcutaneous xenograft, MMAE-labelled 10D7 and chimeric 10D7; conditions: 125 μg iv, treated twice
Method: Pancreatic cancer cells (TKCC2.1 cells, 1×10^6 cells) were grafted subcutaneously in NSG mice. After 4 weeks, mice were randomized into 5 groups (10 mice per group) and treated with: PBS (iv, 125 μl fortnightly), IgG-MMAE (iv, 125 μg diluted in 125 μl PBS), 10D7-MMAE (iv, 125 μg diluted in 125 μl PBS), Chim hu/mu-10D7-MMAE (iv, 125 μg diluted in 125 μl PBS) or Gemcitabine (ip, 100 mg/kg in PBS weekly).
Mice were euthanized when one ethical end point was reached (either tumour size or excessive signs of distress).

B1: 10D7-MMAE (conjugate)
VH: EVQLQQFGAELVKPGASVKISCKASGYSFSDFNIEWLKQSHGKSLEWIGDINPNYDSTNYNQKFKGRATLTVDKSSSTAYMEVRSLTSEDTAVYYCARLGYGYAMDYWGQGTSVTVSS
VL: NIVMTQSPQSMSMSVGERVTLSCKASENVGAYVSWFQQKPDQSPKLLILAASNRYTGVPARFIGSGSATDFTLTISSVQAEDLADYHCGQSYTYPYTFGGGTKLEIKRADAAPTVS
With B1 the survival of cells (TKCC05 cells) was “about 10%”, the “half maximum dose required to block colony formation” value (OVMZ6-CDCP1 cells) was ~0.07 µg/mL and the “reduction of pancreatic tumour volume” value (TKCC2.1 cells xenografts) was “superior to gemcitabine”. The survival of mice (TKCC2.1 cells xenografts) was “prolonged”.
